Values quoted from earlier work in patent publication US20220089455A1, “METHOD FOR PRODUCING NANOPARTICLE HAVING METAL PARTICLE WHICH CONTAINS IRON OXIDE TO WHICH ONE OR MORE HYDROPHILIC LIGANDS ARE COORDINATION BONDED” (ASTELLAS PHARMA INC., priority 2018, published 2022).

Conditions: standard used for SEC comparison

B1: ovalbumin (protein, UniProt P01012 2-386, looked up)
Ovalbumin: GSIGAASMEFCFDVFKELKVHHANENIFYCPIAIMSALAMVYLGAKDSTRTQINKVVRFDKLPGFGDSIEAQCGTSVNVHSSLRDILNQITKPNDVYSFSLASRLYAEERYPILPEYLQCVKELYRGGLEPINFQTAADQARELINSWVESQTNGIIRNVLQPSSVDSQTAMVLVNAIVFKGLWEKAFKDEDTQAMPFRVTEQESKPVQMMYQIGLFRVASMASEKMKILELPFASGTMSMLVLLPDEVSGLEQLESIINFEKLTEWTSSNVMEERKIKVYLPRMKMEEKYNLTSVLMAMGITDVFSSSANLSGISSAESLKISQAVHAAHAEINEAGREVVGSAEAGVDAASVSEEFRADHPFLFCIKHIATNAVLFFGRCVSP
particle diameter of the standard: 6.1 nm
